Experimental data published in patent US20230002480A1.

Legend:
Test in all cases: cell-based or functional assay
[1] = molecular target: HIV-1 Env of pseudovirus 1012_11_TC21_3257 (HIV-1)
[2] = molecular target: HIV-1 Env of pseudovirus HIV-0013095-2.11 (HIV-1)
[3] = molecular target: HIV-1 Env of pseudovirus BJOX009000.02.4 (HIV-1)
[4] = molecular target: HIV-1 Env of pseudovirus RHPA4259.7 (HIV-1)
[5] = molecular target: HIV-1 Env of pseudovirus 1056_10_TA11_1826 (HIV-1)
[6] = molecular target: HIV-1 Env of pseudovirus Ce704809221_1B3 (HIV-1)
[7] = molecular target: HIV-1 Env of pseudovirus 235-47 (HIV-1)
[8] = molecular target: HIV-1 Env of pseudovirus X1632_S2_B10 (HIV-1)
[9] = molecular target: HIV-1 Env of pseudovirus SC05_8C11_2344 (HIV-1)
[10] = molecular target: HIV-1 Env of pseudovirus 6545.v4.c1 (HIV-1)
[11] = molecular target: HIV-1 Env of pseudovirus ZM214M.PL15 (HIV-1)
[12] = molecular target: HIV-1 Env of pseudovirus 6540.v4.c1 (HIV-1)
[13] = molecular target: HIV-1 Env of pseudovirus 249M B10 (HIV-1)
[14] = molecular target: HIV-1 Env of pseudovirus 191955_A11 (HIV-1)
[15] = molecular target: HIV-1 Env of pseudovirus X2131_C1_B5 (HIV-1)
[16] = molecular target: HIV-1 Env of pseudovirus C1080.c03 (HIV-1)
[17] = molecular target: HIV-1 Env of pseudovirus 6244_13_B5_4576 (HIV-1)
[18] = molecular target: HIV-1 Env of pseudovirus ZM233M.PB6 (HIV-1)
[19] = molecular target: HIV-1 Env of pseudovirus R1166.c01 (HIV-1)
[20] = molecular target: HIV-1 Env of pseudovirus CNE52 (HIV-1)
[21] = molecular target: HIV-1 Env of pseudovirus 1006_11_C3_1601 (HIV-1)
[22] = molecular target: HIV-1 Env of pseudovirus CAP210.2.00.E8 (HIV-1)
[23] = molecular target: HIV-1 Env of pseudovirus 62357_14_D3_4589 (HIV-1)
[24] = molecular target: HIV-1 Env of pseudovirus TRO.11 (HIV-1)
[25] = molecular target: HIV-1 Env of pseudovirus CAP45.2.00.G3 (HIV-1)
[26] = molecular target: HIV-1 Env of pseudovirus T251-18 (HIV-1)
[27] = molecular target: HIV-1 Env of pseudovirus T255-34 (HIV-1)
[28] = molecular target: HIV-1 Env of pseudovirus R2184.c04 (HIV-1)
[29] = molecular target: HIV-1 Env of pseudovirus Ce1176_A3 (HIV-1)
[30] = molecular target: HIV-1 Env of pseudovirus Ce0393_C3 (HIV-1)
[31] = molecular target: HIV-1 Env of pseudovirus TRJO4551.58 (HIV-1)
[32] = molecular target: HIV-1 Env of pseudovirus CNE53 (HIV-1)
[33] = molecular target: HIV-1 Env of pseudovirus CNE30 (HIV-1)
[34] = molecular target: HIV-1 Env of pseudovirus ZM135M.PL10a (HIV-1)
[35] = molecular target: HIV-1 Env of pseudovirus 3103.v3.c10 (HIV-1)
[36] = molecular target: HIV-1 Env of pseudovirus C3347.c11 (HIV-1)
[37] = molecular target: HIV-1 Env of pseudovirus CNE21 (HIV-1)

## 3BNC117 (antibody)
[1]
  neutralization IC50: 0.02 µg/mL
  neutralization IC80: 0.07 µg/mL
[2]
  neutralization IC50: 0.33 µg/mL
  neutralization IC80: 2.53 µg/mL
[3]
  IC50, titer in TZM.bl cells: 0.4 µg/mL
  IC80, titer in TZM.bl cells: 1.79 µg/mL
[4]
  neutralization IC50: < 0.09 µg/mL
  neutralization IC80: < 0.09 µg/mL
[5]
  neutralization IC50: 0.3 µg/mL
  neutralization IC80: 1.82 µg/mL
[6]
  neutralization IC50: 0.08 µg/mL
  neutralization IC80: 0.31 µg/mL
[7]
  IC50, titer in TZM.bl cells: 0.03 µg/mL
  IC80, titer in TZM.bl cells: 0.12 µg/mL
[8]
  IC50, titer in TZM.bl cells: 15.7 µg/mL
  IC80, titer in TZM.bl cells: > 50 µg/mL
[9]
  neutralization IC50: 0.15 µg/mL
  neutralization IC80: 0.51 µg/mL
[10]
  IC50, titer in TZM.bl cells: > 50 µg/mL
  IC80, titer in TZM.bl cells: > 50 µg/mL
[11]
  neutralization IC50: 0.06 µg/mL
  neutralization IC80: 0.52 µg/mL
[12]
  IC50, titer in TZM.bl cells: > 50 µg/mL
  IC80, titer in TZM.bl cells: > 50 µg/mL
[13]
  neutralization IC50: 0.1 µg/mL
  neutralization IC80: 0.4 µg/mL
[14]
  neutralization IC50: > 50 µg/mL
  neutralization IC80: > 50 µg/mL
[15]
  IC50, titer in TZM.bl cells: 0.43 µg/mL
  IC80, titer in TZM.bl cells: 1.96 µg/mL
[16]
  IC50, titer in TZM.bl cells: 0.25 µg/mL
  IC80, titer in TZM.bl cells: 1.73 µg/mL
[17]
  neutralization IC50: 0.04 µg/mL
  neutralization IC80: 0.15 µg/mL
[18]
  neutralization IC50: 0.13 µg/mL
  neutralization IC80: 0.85 µg/mL
[19]
  IC50, titer in TZM.bl cells: 0.17 µg/mL
  IC80, titer in TZM.bl cells: 0.64 µg/mL
[20]
  neutralization IC50: 0.02 µg/mL
  neutralization IC80: 0.06 µg/mL
[21]
  neutralization IC50: 0.03 µg/mL
  neutralization IC80: 0.1 µg/mL
[22]
  neutralization IC50: 17.2 µg/mL
  neutralization IC80: > 50 µg/mL
[23]
  neutralization IC50: 0.06 µg/mL
  neutralization IC80: 0.26 µg/mL
[24]
  neutralization IC50: < 0.09 µg/mL
  neutralization IC80: < 0.09 µg/mL
[25]
  neutralization IC50: 3.88 µg/mL
  neutralization IC80: > 50 µg/mL
[26]
  IC50, titer in TZM.bl cells: 0.26 µg/mL
  IC80, titer in TZM.bl cells: 0.82 µg/mL
[27]
  IC50, titer in TZM.bl cells: 0.02 µg/mL
  IC80, titer in TZM.bl cells: 0.14 µg/mL
[28]
  IC50, titer in TZM.bl cells: 0.03 µg/mL
  IC80, titer in TZM.bl cells: 0.1 µg/mL
[29]
  neutralization IC50: 0.22 µg/mL
  neutralization IC80: 0.75 µg/mL
[30]
  neutralization IC50: 0.2 µg/mL
  neutralization IC80: 0.67 µg/mL
[31]
  neutralization IC50: 0.05 µg/mL
  neutralization IC80: 0.19 µg/mL
[32]
  neutralization IC50: 0.08 µg/mL
  neutralization IC80: 0.99 µg/mL
[33]
  neutralization IC50: 0.26 µg/mL
  neutralization IC80: 0.85 µg/mL
[34]
  neutralization IC50: 0.03 µg/mL
  neutralization IC80: 0.13 µg/mL
[35]
  IC50, titer in TZM.bl cells: 0.22 µg/mL
  IC80, titer in TZM.bl cells: 0.85 µg/mL
[36]
  IC50, titer in TZM.bl cells: 0.03 µg/mL
  IC80, titer in TZM.bl cells: 0.13 µg/mL
[37]
  neutralization IC50: 45.4 µg/mL
  neutralization IC80: > 50 µg/mL

## N49P6 (antibody)
[1]
  IC50: 0.137 µg/mL
  IC80: 0.502 µg/mL
  MPI: 100
[2]
  IC50: 0.971 µg/mL
  IC80: 8.04 µg/mL
  MPI: 96
[3]
  IC50: 0.32 µg/mL
  IC80: 1.46 µg/mL
  MPI: 100
[4]
  IC50: 0.117 µg/mL
  IC80: 0.443 µg/mL
  MPI: 100
[5]
  IC50: 0.209 µg/mL
  IC80: 0.606 µg/mL
  MPI: 100
[6]
  IC50: 1.67 µg/mL
  IC80: 12.8 µg/mL
  MPI: 97
[7]
  IC50: 13 µg/mL
  IC80: 46.4 µg/mL
  MPI: 82
[8]
  IC50: 23.1 µg/mL
  IC80: > 50 µg/mL
  MPI: 69
[9]
  IC50: 0.266 µg/mL
  IC80: 0.911 µg/mL
  MPI: 100
[10]
  IC50: 24.5 µg/mL
  IC80: > 50 µg/mL
  MPI: 76
[11]
  IC50: 0.51 µg/mL
  IC80: 1.8 µg/mL
  MPI: 100
[12]
  IC50: 14 µg/mL
  IC80: 47.5 µg/mL
  MPI: 81
[13]
  IC50: 0.122 µg/mL
  IC80: 0.549 µg/mL
  MPI: 100
[14]
  IC50: 0.124 µg/mL
  IC80: 0.344 µg/mL
  MPI: 100
[15]
  IC50: 0.174 µg/mL
  IC80: 0.72 µg/mL
  MPI: 100
[16]
  IC50: 0.181 µg/mL
  IC80: 0.661 µg/mL
  MPI: 100
[17]
  IC50: 0.095 µg/mL
  IC80: 0.328 µg/mL
  MPI: 100
[18]
  IC50: 1.23 µg/mL
  IC80: 4 µg/mL
  MPI: 99
[19]
  IC50: 0.102 µg/mL
  IC80: 0.344 µg/mL
  MPI: 100
[20]
  IC50: 0.028 µg/mL
  IC80: 0.095 µg/mL
  MPI: 100
[21]
  IC50: 0.068 µg/mL
  IC80: 0.209 µg/mL
  MPI: 100
[22]
  IC50: 22.6 µg/mL
  IC80: > 50 µg/mL
  MPI: 73
[23]
  IC50: 0.098 µg/mL
  IC80: 0.296 µg/mL
  MPI: 100
[24]
  IC50: 0.061 µg/mL
  IC80: 0.19 µg/mL
  MPI: 100
[25]
  IC50: 21.7 µg/mL
  IC80: > 50 µg/mL
  MPI: 75
[26]
  IC50: 0.344 µg/mL
  IC80: 0.929 µg/mL
  MPI: 100
[27]
  IC50: 0.076 µg/mL
  IC80: 0.392 µg/mL
  MPI: 100
[28]
  IC50: 0.028 µg/mL
  IC80: 0.077 µg/mL
  MPI: 100
[29]
  IC50: 0.594 µg/mL
  IC80: 2.11 µg/mL
  MPI: 100
[30]
  IC50: 0.608 µg/mL
  IC80: 3.25 µg/mL
  MPI: 100
[31]
  IC50: 0.255 µg/mL
  IC80: 0.874 µg/mL
  MPI: 100
[32]
  IC50: 0.249 µg/mL
  IC80: 0.871 µg/mL
  MPI: 99
[33]
  IC50: 0.457 µg/mL
  IC80: 1.54 µg/mL
  MPI: 100
[34]
  IC50: 0.494 µg/mL
  IC80: 1.77 µg/mL
  MPI: 99
[35]
  IC50: 0.582 µg/mL
  IC80: 1.57 µg/mL
  MPI: 100
[36]
  IC50: 0.08 µg/mL
  IC80: 0.266 µg/mL
  MPI: 100
[37]
  IC50: 0.832 µg/mL
  IC80: 6.52 µg/mL
  MPI: 99
